The source of these data is PMC3866529.

One series deals with Cys27. Briefly: chemical modification.
The subject of another series is Cys23. As to the kind of experiment: chemical modification. The settings on record: Pre-incubation temperature not stated; the HED activity assay was run at 25°C; not stated (100 mM buffer); 100 mM sodium citrate or phosphate buffers; DTT-reduced WT protein, no ligand.
In another series the test system is Cys. The settings on record: cited from earlier work.
For a further series, the system named is Cys31. Briefly: chemical modification. To be noted: Pre-incubation temperature not stated; the HED activity assay was run at 25°C; not stated (100 mM buffer); 100 mM sodium citrate or phosphate buffers; DTT-reduced WT protein, no ligand.
Series [1] addresses Cys22 (UniProt position 23, FIKPTCPFSRK). The settings on record: cited from earlier work.
In series [2] the target is Cys22 (UniProt position 23, FIKPTCPFCRK). To be noted: cited from earlier work.
Another series deals with Cys37. Briefly: chemical modification. To be noted: Pre-incubation temperature not stated; the HED activity assay was run at 25°C; not stated (100 mM buffer); 100 mM sodium citrate or phosphate buffers; DTT-reduced WT protein, no ligand.
For series [3], the target named is Cys22 (UniProt position 23, FIKPTCPFARK). To be noted: cited from earlier work.
Series [4] has as its target Cys22 (UniProt position 23, FIKPTCPYCRR). The settings on record: cited from earlier work.

A word on the pKa: it is the pH at which an ionisable group is half protonated. For “Glutaredoxin S12 (PtGrxS12) (Populus sp. (poplar))”, the pKa with Cys27 (cited from earlier work) is given as 3.9.

Substance “Glutaredoxin C2 (PtGrxC2) (Populus sp. (poplar; 'Pt' prefix, species not spelled out in the article))” had a pKa in the series on Cys23 of 5.0 ± 0.1.

On to Glutaredoxin 2 (HsGrx2) (Homo sapiens), for which the pKa in the series on Cys was 4.6.

“Glutaredoxin C1 (PtGrxC1) (Populus sp. (poplar; 'Pt' prefix, species not spelled out in the article))” yielded a pKa in the series on Cys31 of 5.3 ± 0.1.

Consider “Glutaredoxin 2 (CrGrx2) (Chlamydomonas reinhardtii)”, for which the pKa in the series with Cys is 4.8 ± 0.1.

In the case of “Glutaredoxin (pig liver thioltransferase) C25S (Sus scrofa; C25S)”, the pKa with Cys22 [1] is recorded as 4.9.

For “Glutaredoxin (pig liver thioltransferase) (Sus scrofa)”, the pKa with Cys22 [2] is listed as 3.8.

In the case of “Glutaredoxin 1 (ScGrx1) (Saccharomyces cerevisiae)”, the pKa in the series on Cys is 3.2 to 4.0 ± 0.2.

“Glutaredoxin C3 (PtGrxC3) (Populus sp. (poplar; 'Pt' prefix, species not spelled out in the article))”: the pKa in the series on Cys37 is reported as 4.6 ± 0.1.

Substance “Glutaredoxin C4 (PtGrxC4) (Populus sp. (poplar; 'Pt' prefix, species not spelled out in the article))” showed a pKa with Cys27 (Pre-incubation temperature not stated, the HED activity assay was run at 25°C, not stated (100 mM buffer), 100 mM sodium citrate or phosphate buffers, DTT-reduced WT protein, no ligand) of 4.6 ± 0.1.

In the case of “Glutaredoxin 1 (CrGrx1) (Chlamydomonas reinhardtii)”, the pKa with Cys was 3.9 ± 0.1.

In the case of “Glutaredoxin (pig liver thioltransferase) C25A (Sus scrofa; C25A)”, the pKa with Cys22 [3] is 5.9.

For the substance “Glutaredoxin 2 (ScGrx2) (Saccharomyces cerevisiae)”, the pKa in the series with Cys is 3.1 to 3.5 ± 0.2.

“Glutaredoxin 1 (HsGrx1, thioltransferase) (Homo sapiens)”: the pKa with Cys22 [4] is listed as 3.6.
